Results reported in publication PMC3386906 (2012).

Tests used:
ChemR23 [1] = target: T1, ChemR23 (Mus musculus, UniProt P97468); test: radioligand saturation binding (125I-chemerin, peritoneal macrophages)
T1 chain: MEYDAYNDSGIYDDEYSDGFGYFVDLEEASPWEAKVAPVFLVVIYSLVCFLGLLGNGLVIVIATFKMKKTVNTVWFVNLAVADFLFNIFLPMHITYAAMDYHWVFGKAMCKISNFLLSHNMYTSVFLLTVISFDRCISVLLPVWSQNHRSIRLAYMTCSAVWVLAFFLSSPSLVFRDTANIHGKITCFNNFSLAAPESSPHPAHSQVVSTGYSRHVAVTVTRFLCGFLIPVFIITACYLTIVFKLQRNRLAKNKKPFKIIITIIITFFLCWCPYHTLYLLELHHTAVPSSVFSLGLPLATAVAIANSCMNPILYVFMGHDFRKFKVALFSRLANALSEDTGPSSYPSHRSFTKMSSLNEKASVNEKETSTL

ChemR23 [2] = target: T1, ChemR23; test: radioligand saturation binding (CHO-K1 cells)
ChemR23 [3] = target: T2, ChemR23 (Homo sapiens, UniProt Q99788); test: radioligand
T2 chain: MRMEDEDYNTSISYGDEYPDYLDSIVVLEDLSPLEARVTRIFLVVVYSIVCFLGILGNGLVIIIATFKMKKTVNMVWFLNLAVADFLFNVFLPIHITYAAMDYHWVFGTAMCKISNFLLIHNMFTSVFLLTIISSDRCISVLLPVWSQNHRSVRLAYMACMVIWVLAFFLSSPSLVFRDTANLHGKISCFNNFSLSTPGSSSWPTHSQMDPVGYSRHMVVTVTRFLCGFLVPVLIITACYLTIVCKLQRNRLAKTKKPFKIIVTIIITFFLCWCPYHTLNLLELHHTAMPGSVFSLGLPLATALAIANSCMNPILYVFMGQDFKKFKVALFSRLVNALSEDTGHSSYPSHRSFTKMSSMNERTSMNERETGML

B1: chemerin (protein)
chain: ELTEAQRRGLQVALEEFHKHPPVQWAFQETSVESAVDTPFPAGIFVRLEFKLQQTSCRKRDWKKPECKVRPNGRKRKCLACIKLGSEDKVLGRLVHCPIETQVLREAEEHQETQCLRVQRAGEDPHSFYFPGQFAFS
modifications: 125I-labelled chemerin
With B1 the Kd (ChemR23 [1]) was roughly 1.2 nM and the Kd (ChemR23 [2]) was 1.1 nM.

B2: chemerin (protein)
chain: B1 chain
B2 was tested, and the Kd (ChemR23 [3]) was 0.9 nM.
